Here are results for two molecules from patent US20210072252A1.

Assay [1] concerns the target peptide with N-terminal phosphotyrosine. The experiment in a line: biolayer interferometry (Blitz), peptide-coated sensor, NAAB in 1x PBS, 1:1 fit, kd/ka. (In general: BLI is a label-free optical method that tracks binding on a fibre tip over time.)
A further assay concerns the target T1, Leu.
T1 sequence (peptide): LGMMGSSC
The assay is described as follows: single-molecule TIRF, Cy5-labelled protein on peptide immobilized on nanogel.

B1: Phosphotyrosine NAAB (designed binder)
chain: MDEFEMIKRNTSEIISELREVLKKDEKSALIGFEPSGKIHLGHYLQKKMIDLQNAGFDIIIPLADLHAYLNQKGELDEIRKIGDYNKKVFEAMLKAKYVYGSEFQLDKYTLNVYRLALKTTLKARRSMELIAREDENPVAEVIYPIMQVNGCHYKGVDVAVGGMEQRKIMLARELLPKKVVCIHPVLTGLDGEGKMSSSGNFIAVDDSPEEIRAFKKAYCPAGVVEGNPEIAKYFLEYPLTIKPEKFGGDLTVNSYEESLFKNKELHPMDLKAVAEELIKILEPIRK
In the case of B1, the Kd (commonly the constant that tells how readily two partners part at equilibrium) in assay [1] was determined as 1070 nM. That is a single-digit micromolar value.

B2: engineered MetRS domain (Met NAAB), GST-MetRS fusion labeled with Cy5 (designed binder, not shown: a dimerising Fc or GST)
chain: AKKILVTCASPYANGSIHLGHMLEHIQADVWVRYQRMRGHEVNFICADDAHGTPIMLKAQQLGITPEQMIGEMSQEHQTDFAGFNISYDNYHSTHSEENRQLSELIYSRLKENGFIKNRTISQLYDPEKGMFLPDRFVKGTCPKCKSPDQYGDNCEVCGATYSPTELIEPKSVVSGATPVMRDSEHFFFDLPSFSEMLQAWTRSGALQEQVANKMQEWFESGLQQWDISRDAPYFGFEIPNAPGKYFYVWLDAPIGLMGSFKNLCDKRGDSVSFDEYWKKDSTAELYHFIGKGIVYFLSLFWPAMLEGSNFRKPSNLFVHGYVTVNGAKMSKSRGTFIKASTWLNHFDADSLRYYYTAKLSSRIDDIDLNLEDFVQRVNADIVNKVVNLASRNAGFINKRFDGVLASELADPQLYKTFTDAAEVIGEAWESREFGKAVREIMALADLANRYVDEQAPWVVAKQEGRDADLQAICSMGINLFRVLMTYLKPVLPKLTERAEAFLNTELTWDGIQQPLLGHKVNPFKALYNRIDMRQVEALVEASK
modifications: Cy5 fluorophore on lysine side chains
B2 showed a Counts with Leu of 49 counts.
